Tested on: K4 kissing-loop RNA reporter
Test: apparent KD of K4 kissing-loop reporter; higher = weaker reporter binding
Details: Eterna round: R107
Experimental: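 RNA-MaP round R107: designed RNA switches with theophylline, tryptophan, arginine or FMN aptamers are transcribed on-chip within common flanks. They are titrated with a labelled K4 kissing-loop RNA reporter in RNA-MaP buffer (100 mM Tris pH 7.5, 80 mM KCl, 4 mM MgCl2), without ligand or with the indicated ligand. Median apparent KD per design.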

[1] = input ligand: theophylline 20 uM
[2] = input ligand: tryptophan 2.4 mM
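Also: bound reporter read as fluorescence of individual clusters on recovered sequencing chips by microscopy, with normalized cluster intensities fitted with a binding model.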

Row | Sequence | apparent KD of K4 kissing-loop reporter (input ligand: FMN 200 uM) | apparent KD of K4 kissing-loop reporter (input ligand: arginine 13.2 mM) | apparent KD of K4 kissing-loop reporter (input ligand: none) | apparent KD of K4 kissing-loop reporter [1] | apparent KD of K4 kissing-loop reporter [2]
1 | CUUGGAAGGACGGCCGCCACUCGACGGAGUGAUGUUCCGUGUGGGUAGCGCAGUGAUGUUGUGUCGAGGACCGGGUCCUAGGAAU [Exclusion Tryptophan B GF 28] | 181 nM | 115 nM | 143 nM | 160 nM | 77.7 nM
2 | GAACAUAGUAAAGGAUAUUCCUGCCUCGCGCGAUUGAUUAGUGAUGUUGACGAUAUCGCUUUGAGGGAAGAAGGUUAACAAGUCA [theeternabot_exclusion_KL_FMN_B_4] | 761 nM | 659 nM | 678 nM | 478 nM | 596 nM
3 | GAACGGCGGGCGGCCGCCACUGGUAUACGAGUGAUGUUCGGAUAUACAUAAAAUAAGGUAAUUAACAGGACCGGGUCAGAGCCGG [Tryptophan B Same State; Euphoria Solution] | 138 nM | 130 nM | 165 nM | 142 nM | 118 nM
4 | GAAGGUCAAAGACCUUCGUGCACAUCUGAUACCAGUCGCGAAAGCGACCCUUGGCAGCAGGGCAGUGAUGUUGCCAGUGCACAAA [Omei KL Theo A SS A v4] | 255 nM | 221 nM | 273 nM | 168 nM | 253 nM
5 | GAAUUAAUGUCUUUAAUAUAAUAAUCAGAUACCAGUGAUUUGUGACACCCUUGGCAGCUGUAUAGAGUGAUGUUCUUAUACAUAA [#12 K4 Theophylline A Exclusion] | 352 nM | 460 nM | 409 nM | 509 nM | 279 nM
6 | GACACACUUUCAGGUGUCCAGUGACUGGAUACCAGCAUGGAAACAUGCCCUUGGCAGCCAGAACUGGAAGUGAUGUUUCCAGUAA [Theo A Mod Design7 (Brourd)] | 380 nM | 241 nM | 346 nM | 262 nM | 330 nM
7 | GACCCAGAAGCACACCUAAAGUUGACAGAUACCAGCGUCGUUUGGCGCCCUUGGCAGCUGGUCAGUGAUGUUGAUAGCUUCGACU [theeternabot_sameState_KL_Theo_A_24] | 197 nM | 69.5 nM | 181 nM | 89.5 nM | 93.6 nM
8 | GAUAAAUUGAUGCGUAGUGAUGCACGGGAAGGAGCGCGUUUUUUCGCAGGUAGGUCGCCCGACUGCGCGUUUCGAGUGAUGUUCG [5.)] | 192 nM | 198 nM | 193 nM | 197 nM | 172 nM
9 | GAUAUAGUGAUGUUAUAUACUGAUAGACAACGAGGACCGGUACGGCCGCCACUCGAGAGGGUGAAAAUGGUGAUAAAAUAAUGAU [#03 K4 Tryptophan A Exclusion] | 349 nM | 271 nM | 381 nM | 322 nM | 274 nM
10 | GAUGGGUAUCAAGGAUAUGCCACUAUUGACUCCUAGAUGGUCAACCAUAUAAUGCGAGUGAUGUUCGCAGAAGGUGAUUCUUAGC [theeternabot_exclusion_KL_FMN_B_24] | 92.3 nM | 92.3 nM | 89.5 nM | 89.7 nM | 73.2 nM
11 | GAUGUAGAGGCGGCCGCCACUAGUGAUGUUAGUGAUGUUUGAUACUGUAUAUAUCGGCGUGUAGAUAGGACCGGGCCUGAUGGAG [dbbdmullin] | 276 nM | 165 nM | 214 nM | 225 nM | 201 nM
12 | GAUUAAUAAGAGGAUACCAGUACUAAUAAAGUACAUUAAUAGUAGAGUGAUGUUCUAUAGUACCCUUGGCAGCUUAGAGUAAGUU [#09 K4 Theophylline B Exclusion] | 131 nM | 200 nM | 167 nM | 210 nM | 103 nM
13 | GAUUCAGUGAUGUUGGAAGGCGAGCGGGAUACCAGCGGAGACUCACGCCCUUGGCAGCCCACAUAUCCCAGGUAGAUAAUAGAUC [Same State - Theophylline A (Freestyle 7)] | 201 nM | 123 nM | 178 nM | 160 nM | 180 nM
14 | GAUUGUGAUGGAAACAUCGCAAUCUCUGAAGGAGCGCGUGAAAACGCAGGUAGGUCGCAGAACGACAAAGACAGUGAUGUUGUCA [Ex Arginine A K4 5] | 321 nM | 263 nM | 289 nM | 298 nM | 234 nM
15 | GCAAAGGCCCAUCGGAAUUCGAGACCAGCACGAGGACCGGUACGGCCGCCACUCGUGCAGUGAUGUUGCACGAAUGGGAAACCGC [Oninanso] | 112 nM | 103 nM | 125 nM | 118 nM | 147 nM
16 | GCAACAUUGGCAGGAUAUCAUUCUGAGUGAUGUUCAGGGUUCAGCUAACGAAAGUUAGUUGUACCAUGAGAAGGGCUAAUGUUGC [Omei KL FMN B SS A v1] | 332 nM | 886 nM | 1120 nM | 1020 nM | 1080 nM
17 | GCAACAUUGGCAGGAUAUCCUUCUCAGUGAUGUUGAGGGUUCAGCUAACGAAAGUUAGUUGUACCGGGAGAAGGGCUAAUGUUGC [Omei KL FMN B SS A v8] | 288 nM | 650 nM | 1100 nM | 913 nM | 1240 nM
18 | GCAGUCCGGACGGCCGCCACUAUCCGUAAAGUGAUGUUUUACGAACAAUCGAUUGCAUAUCAGAAUAGGACCGGGUCCGUCGACC [theeternabot_sameState_KL_Trp_B_15] | 228 nM | 185 nM | 212 nM | 170 nM | 201 nM
19 | GCAGUGAUGUUGCGGAUGUACAGUGGCGUGCGAGGACCGGUACGGCCGCCACUCGUACAGAACAAGCUAAUACAUCGAUAGGUGA [whbob_SS_Tryp_A_m1] | 493 nM | 294 nM | 556 nM | 516 nM | 355 nM
20 | GCAUCAUGCUACGAUACCAGAAGUUCCCUUUAGUGUAGUGAUGUUGCAGAUAUUGCUUACUUCCCUUGGCAGCGUUUGACGGGUA [theeternabot_sameState_KL_Theo_B_35] | 256 nM | 205 nM | 220 nM | 335 nM | 155 nM
21 | GCAUCCAUGGCAGGAUAUAGGUUCGUGGAGUGAUGUUCCAUAGCCCGAGUGAUGUUCGUUAUCCGCCUAGAAGGGCCGUGGAUGC [whbob_Ex_FMNB__2th214] | 248 nM | 184 nM | 235 nM | 192 nM | 212 nM
